In patent publication US20250243263A1 one finds OD (450 nm) and Kd data, which are given here for 6 substances.

In test [1] the target is Tau191-214 phospho-peptide (pS202/pT205) (human). The test can be described thus: one point ELISA.
Test [2] deals with Tau204-222 phospho-peptide (pT212) (human). The test can be described thus: one point ELISA. For orientation: ELISA stands for enzyme-linked immunosorbent assay.
Test [3] concerns the target tPeptide 5 (204-222) (human). The test can be described thus: one point ELISA.
The target of test [4] is Tau191-214 phospho-peptide (pS199/pS202) (human). The test can be described thus: one point ELISA.
Test [5] addresses Tau204-222 phospho-peptide (pS214) (human). The test can be described thus: one point ELISA.
Test [6] deals with Tau191-214 phospho-peptide (pS199/pT205) (human). The test can be described thus: one point ELISA.
In test [7] the target is Tau191-214 phospho-peptide (pS199/pS202/pT205) (human). The test can be described thus: one point ELISA.
Test [8] deals with Tau204-222 phospho-peptide (pS214/pT217) (human). The test can be described thus: one point ELISA.
In test [9] the target is Tau204-222 phospho-peptide (pT212/pS214/pT217) (human). The test can be described thus: one point ELISA.
The target of test [10] is Tau191-214 phospho-peptide (pS202) (human). The test can be described thus: one point ELISA.
Test [11] addresses Tau204-222 phospho-peptide (pT212/pT217) (human). The test can be described thus: one point ELISA.
Test [12] addresses Tau204-222 phospho-peptide (pT217) (human). The test can be described thus: one point ELISA.
Test [13] has as its target Tau191-214 phospho-peptide (pS199) (human). The test can be described thus: one point ELISA.
Test [14] concerns the target pS199-old (SCBio-4PEG-Peptide, Tau191-214) (human). The test can be described thus: one point ELISA.
In test [15] the target is Tau204-222 phospho-peptide (pT212/pS214) (human). The test can be described thus: one point ELISA.
The target in test [16] is Tau191-214 phospho-peptide (pT205) (human). The test can be described thus: one point ELISA.
In test [17] the target is AT8 peptide (amino acids 195-215 of tau) (human). The test can be described thus: BLI (Octet), phospho-peptide on streptavidin tips.
The target of test [18] is Tau217-234 phospho-peptide (pT217/pT220/pT231) (human). The test can be described thus: BLI. For orientation: Biolayer interferometry detects binding as a change in optical thickness at a sensor tip.
Test [19] addresses Tau225-240 phospho-peptide (pT231) (human). The test can be described thus: BLI.

Tau191-214 phospho-peptide (pS199/pT205) (human), sequence (peptide, as listed by the source): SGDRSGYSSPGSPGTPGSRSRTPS
AT8 peptide (amino acids 195-215 of tau) (human), sequence (peptide, as listed by the source): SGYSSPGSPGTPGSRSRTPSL

Turning to hIgG1 isotype control (antibody), the OD (450 nm) worked out at 0.249 OD450 in [1]; 0.06 OD450 in test [2]; 0.141 OD450 in [3]; 0.062 OD450 in test [4]; 0.061 OD450 in [5]; 0.09 OD450 in [6]. For the same substance, the OD (450 nm) in [7] worked out at 0.245 OD450; in test [8], 0.059 OD450; in [9] it was 0.053 OD450; in [10], 0.055 OD450; in test [11], 0.057 OD450; in [12], 0.083 OD450. For the same substance, the OD (450 nm) in test [13] turned out to be 0.058 OD450; in [14], 0.06 OD450; in [15] it was 0.059 OD450; in test [16] it was 0.054 OD450.
Turning to PT3-hIgG1 (antibody), the OD (450 nm) in test [2] turned out to be 3.16 OD450; in test [3], 2.81 OD450; in [5] it was 3.14 OD450; in test [8] it was 3.13 OD450; in [9], 3.17 OD450; in test [11] it was 3.16 OD450. Besides, the OD (450 nm) in [12] was 3.13 OD450; in test [15], 3.14 OD450.
Consider IPN002-hIgG1 (antibody), for which the OD (450 nm) in test [3] amounted to 0.281 OD450.
As a reminder, the Kd is the free concentration of one partner at which half of the binding sites on the other are occupied at equilibrium, for simple one-to-one binding. High values mean a looser complex, low ones a tighter complex. On to “anti-tau antibody AT8 (ThermoFisher, Waltham, MA)”, for which, in test [17], the Kd was 309 pM. Also, the OD (450 nm) in test [1] is 2.94 OD450; in test [4], 2.39 OD450; in test [6], 0.139 OD450; in test [7] it was 3.07 OD450; in [10], 0.058 OD450; in test [13], 0.056 OD450. Besides, the OD (450 nm) in test [14] was 0.056 OD450; in test [16], 0.065 OD450.
Regarding “anti-tau antibody AT100 (ThermoFisher, Waltham, MA)”, the OD (450 nm) worked out at 0.069 OD450 in [2]; 0.065 OD450 in test [5]; 0.067 OD450 in test [8]; 0.187 OD450 in test [9]; 0.069 OD450 in [11]; 0.068 OD450 in [12]. The substance also displayed an OD (450 nm) in [15] of 0.071 OD450.
Turning to AT180 (antibody), the Kd in test [18] was 5 pM; in test [19], 6 pM.
